Data taken from article PMC314469, “Protein Interaction Networks by Proteome Peptide Scanning” (PLoS Biology, 2004).

T1: Boi1 SH3 (BOI1_YEAST), P38041
T1 chain: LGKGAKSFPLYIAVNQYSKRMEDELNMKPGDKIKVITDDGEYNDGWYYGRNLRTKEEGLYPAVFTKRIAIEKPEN

T2: Rvs167 SH3 (RV167_YEAST), P39743
T2 chain: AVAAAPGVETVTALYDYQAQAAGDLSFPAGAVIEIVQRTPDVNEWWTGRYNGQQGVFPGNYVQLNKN

T3: Yhr016c SH3 (YSC84_YEAST), P32793
T3 chain: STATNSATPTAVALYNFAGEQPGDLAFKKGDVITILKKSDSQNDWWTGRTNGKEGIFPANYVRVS

T4: Boi2 SH3 (BOI2_YEAST), P39969
T4 chain: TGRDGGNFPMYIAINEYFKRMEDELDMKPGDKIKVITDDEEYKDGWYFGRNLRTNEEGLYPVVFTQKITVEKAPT

T5: Yfr024 SH3 (LSB3_YEAST), P43603
T5 chain: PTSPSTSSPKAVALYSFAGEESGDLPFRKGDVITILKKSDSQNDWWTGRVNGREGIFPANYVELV


How the values were obtained:
Test in all cases: SPOT array
[1] = biological target: T1, Boi1 SH3 (BOI1_YEAST), P38041
[2] = biological target: T2, Rvs167 SH3 (RV167_YEAST), P39743
[3] = biological target: T3, Yhr016c SH3 (YSC84_YEAST), P32793
[4] = biological target: T4, Boi2 SH3 (BOI2_YEAST), P39969
[5] = biological target: T5, Yfr024 SH3 (LSB3_YEAST), P43603

Row | normalised SPOT signal, Boehringer light units (BLU); mean over the file's lines of this peptide [1] | normalised SPOT signal, Boehringer light units (BLU); mean over the file's lines of this peptide [2] | normalised SPOT signal, Boehringer light units (BLU); mean over the file's lines of this peptide [3] | normalised SPOT signal, Boehringer light units (BLU); mean over the file's lines of this peptide [4] | normalised SPOT signal, Boehringer light units (BLU); mean over the file's lines of this peptide [5] | Binder
1 | 105 | 25.3 | 243 | 45.3 | 22.8 | SPPPVSPSKMKTTK [YMR255W 106-119]
2 | 114 | 29.4 | 108 | 22.9 | 758 | SLPPTPPYKAHKKK [YBR007C 353-366]
3 | 59.5 | 17.9 | 201 | 15.4 | 382 | SNFPDFPLKKYLKN [YER087W 333-346]
4 | 71.5 | 51.3 | 143 | 0 | 0 | SNSPISPHKLIYKN [YDR216W 473-486]
5 | 63.4 | 43.7 | 522 | 53.9 | 343 | SPSPLNPYRPHHNM [YNL298W 402-415]
6 | 87.8 | 27 | 81.8 | 74.5 | 647 | SQKPQKPKKSAITK [YJR033C 1337-1350]
7 | 278 | 35.3 | 150 | 52.9 | 302 | SPSPSTPTKSGKMR [YKL185W 424-437]
8 | 8950 | 19000 | 29500 | 40.5 | 35800 | SPLPVLPRRISTHT [YMR068W 249-262]
9 | 79 | 80.3 | 158 | 38.1 | 97.9 | SLSPKDPERARLLS [YMR145C 263-276]
10 | 49.9 | 29.4 | 205 | 39.5 | 86 | SPFPSAPLRKLEIL [YIL034C 92-105]
11 | 72 | 37.5 | 330 | 9 | 114 | SQFPSSPYRTVDPY [YLR183C 3-16]
12 | 61.1 | 47 | 136 | 51.3 | 116 | SNSPSPPEKINNKR [YMR086W 654-667]
13 | 343 | 53.5 | 0 | 2.3 | 58.5 | SQQPTAPMKKTLLK [YMR198W 453-466]
14 | 120 | 2610 | 17100 | 460 | 16600 | SMSPLPPARANKSD [YLR162W 51-64]
15 | 85.9 | 31.9 | 533 | 38.5 | 407 | SMTPDSPVKSDLTS [YNL233W 804-817]
16 | 698 | 34.4 | 151 | 64 | 1830 | SNSPQIPKKKVKDQ [YBL004W 1825-1838]
17 | 77.3 | 815 | 3680 | 119 | 6190 | SMYPGLPSRLEKEL [YDL029W 307-320]
18 | 76.6 | 161 | 2640 | 13.3 | 8060 | SNDPIPPPRKVSDV [YGR097W 457-470]
19 | 58.3 | 85.5 | 133 | 72.7 | 1230 | SMEPHSPKKAKSVE [YIL112W 773-786]
20 | 83.1 | 20.5 | 93.6 | 46.2 | 126 | SLDPDRPEKDSVEE [YIR032C 171-184]
21 | 74.1 | 42.6 | 61.8 | 35.7 | 307 | SNNPSKPRKYKTKS [YIL130W 110-123]
22 | 33.2 | 37.4 | 210 | 71.4 | 272 | SNVPTTPSRELNGT [YNL309W 346-359]
